# Source: paper PMC5384747, “Characterization and mutational analysis of a nicotinamide mononucleotide deamidase from Agrobacterium tumefaciens showing high thermal stability and catalytic efficiency” (PLoS ONE, 2017)
# How the values were obtained:
# purified protein = substrate: NC(=O)c1ccc[n+]([C@@H]2O[C@H](COP(=O)(O)O)[C@@H](O)[C@H]2O)c1; experiment: purified protein; assay type: biochemical, Agrobacterium fabrum; conditions: 50 mM sodium phosphate pH 7.5, 37 °C
# [1] = molecular target: the molecule itself; experiment: SEC; gel filtration on Superdex 200 10/300 GL of the purified enzyme; about 41 kDa against about 19 kDa by SDS-PAGE
Protein,Km (purified protein),kcat (purified protein),kcat/Km (purified protein),stoichiometry N [1]
"AtCinA (NMN deamidase) (Agrobacterium fabrum str. C58) (protein, full length (169 residues, synthetic 510 bp gene), C-terminal His tag (pET24b), E. coli Rosetta 2(DE3); about 19 kDa subunit, 41 kDa homodimer) MSLFPGDIEELARRIITDFTPLGLMVSTAESCTGGLIAGALTEIAGSSAVVDRGFVTYTNDAKRDMLGVGTETLTTFGAVSRQTALQMAHGALYRSRANFAVAVTGIAGPGGGSAEKPVGLVHLATKARNGNVLHHEMRYGDIGRTEIRLATVRTALEMLIALNQAGSV",24 ± 2 µM,8.7 ± 0.2 s⁻¹,362000 M⁻¹ s⁻¹,
"Agrobacterium tumefaciens nicotinamide mononucleotide (NMN) deamidase (enzyme, NMN deamidase CinA of Agrobacterium tumefaciens, UniProt A9CJ26, 169 amino acids; 510 bp synthetic gene cloned between NheI and XhoI of pET24b; Cloning at the NheI and XhoI sites may add a few vector residues; also called AtCinA; CinA) MSLFPGDIEELARRIITDFTPLGLMVSTAESCTGGLIAGALTEIAGSSAVVDRGFVTYTNDAKRDMLGVGTETLTTFGAVSRQTALQMAHGALYRSRANFAVAVTGIAGPGGGSAEKPVGLVHLATKARNGNVLHHEMRYGDIGRTEIRLATVRTALEMLIALNQAGSV",,,,2
